Experimental data reported in the supplement of paper PMC11316812.
± gives the standard deviation of the averaged measurements.

Key:
MCF7 = test: percentage of EdU-negative (G0-arrested) nuclei per well, 72 h; higher = more G0 arrest; settings: reference: sequence is the full UniProt precursor, the tested protein was the secreted form or ectodomain
hTERT-HMEC = test: as above; settings: reference: sequence is the full UniProt precursor, the tested protein was the secreted form or ectodomain
[1] = protein concentration 0.0126825 µM
[2] = protein concentration 0.126825 µM
[3] = protein concentration 0.01625 µM
[4] = protein concentration 0.1625 µM
[5] = protein concentration 0.0225 µM
[6] = protein concentration 0.0155 µM
[7] = protein concentration 0.0173575 µM
[8] = protein concentration 0.173575 µM
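Note: secreted proteins added to cultured cells, EdU pulse at the end, nuclei found by Hoechst imaging, EdU status from nuclear versus surrounding ring intensity ratio, PBS as neutral control.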

“MQVSKRMLAGGVRSMPSPLLACWQPILLLVLGSVLSGSATGCPPRCECSAQDRAVLCHRKRFVAVPEGIPTETRLLDLGKNRIKTLNQDEFASFPHLEELELNENIVSAVEPGAFNNLFNLRTLGLRSNRLKLIPLGVFTGLSNLTKLDISENKIVILLDYMFQDLYNLKSLEVGDNDLVYISHRAFSGLNSLEQLTLEKCNLTSIPTEALSHLHGLIVLRLRHLNINAIRDYSFKRLYRLKVLEISHWPYLDTMTPNCLYGLNLTSLSITHCNLTAVPYLAVRHLVYLRFLNLSYNPISTIEGSMLHELLRLQEIQLVGGQLAVVEPYAFRGLNYLRVLNVSGNQLTTLEESVFHSVGNLETLILDSNPLACDCRLLWVFRRRWRLNFNRQQPTCATPEFVQGKEFKDFPDVLLPNYFTCRRARIRDRKAQQVFVDEGHTVQFVCRADGDPPPAILWLSPRKHLVSAKSNGRLTVFPDGTLEVRYAQVQDNGTYLCIAANAGGNDSMPAHLHVRSYSPDWPHQPNKTFAFISNQPGEGEANSTRATVPFPFDIKTLIIATTMGFISFLGVVLFCLVLLFLWSRGKGNTKHNIEIEYVPRKSDAGISSADAPRKFNMKMI [Q96FE5]” was tested, and the “percentage of EdU-negative” value (MCF7; [1]) was 23.8 ± 3%, the “percentage of EdU-negative” value (MCF7; [2]) was 28.9 ± 0.74% and the “percentage of EdU-negative” value (hTERT-HMEC; [1]) was 4.72 ± 0.26%. The “percentage of EdU-negative” value (hTERT-HMEC; [2]) was 4.37 ± 0.16%.
“MQVSTAALAVLLCTMALCNQFSASLAADTPTACCFSYTSRQIPQNFIADYFETSSQCSKPGVIFLTKRSRQVCADPSEEWVQKYVSDLELSA” was tested, and the “percentage of EdU-negative” value (MCF7; [3]) was 25.6 ± 0.31%, the “percentage of EdU-negative” value (MCF7; [4]) was 25.3 ± 0.67% and the “percentage of EdU-negative” value (hTERT-HMEC; [3]) was 4.43 ± 0.47%. The “percentage of EdU-negative” value (hTERT-HMEC; [4]) was 5.62 ± 0.9%.
For “MQWLRVRESPGEATGHRVTMGTAALGPVWAALLLFLLMCEIPMVELTFDRAVASGCQRCCDSEDPLDPAHVSSASSSGRPHALPEIRPYINITILKGDKGDPGPMGLPGYMGREGPQGEPGPQGSKGDKGEMGSPGAPCQKRFFAFSVGRKTALHSGEDFQTLLFERVFVNLDGCFDMATGQFAAPLRGIYFFSLNVHSWNYKETYVHIMHNQKEAVILYAQPSERSIMQSQSVMLDLAYGDRVWVRLFKRQRENAIYSNDFDTYITFSGHLIKAEDD [Q9BXI9]”, the “percentage of EdU-negative” value (MCF7; [5]) was 26.9 ± 1.5%, the “percentage of EdU-negative” value (MCF7; protein concentration 0.225 µM) was 29.5 ± 1.2% and the “percentage of EdU-negative” value (hTERT-HMEC; [5]) was 4.57 ± 0.33%. The “percentage of EdU-negative” value (hTERT-HMEC; protein concentration 0.225 µM) was 4.82 ± 1.2%.
For “MQWTSLLLLAGLFSLSQAQYEDDPHWWFHYLRSQQSTYYDPYDPYPYETYEPYPYGVDEGPAYTYGSPSPPDPRDCPQECDCPPNFPTAMYCDNRNLKYLPFVPSRMKYVYFQNNQITSIQEGVFDNATGLLWIALHGNQITSDKVGRKVFSKLRHLERLYLDHNNLTRMPGPLPRSLRELHLDHNQISRVPNNALEGLENLTALYLQHNEIQEVGSSMRGLRSLILLDLSYNHLRKVPDGLPSALEQLYMEHNNVYTVPDSYFRGAPKLLYVRLSHNSLTNNGLASNTFNSSSLLELDLSYNQLQKIPPVNTNLENLYLQGNRINEFSISSFCTVVDVVNFSKLQVLRLDGNEIKRSAMPADAPLCLRLASLIEI”, the “percentage of EdU-negative” value (MCF7; [6]) was 25.8 ± 0.27%, the “percentage of EdU-negative” value (MCF7; protein concentration 0.155 µM) was 30.9 ± 1.2% and the “percentage of EdU-negative” value (hTERT-HMEC; [6]) was 4.701 ± 0.032%. For the same sequence, the “percentage of EdU-negative” value (hTERT-HMEC; protein concentration 0.155 µM) was 5.63 ± 0.63%.
In the case of “MRAAGTLLAFCCLVLSTTGGPSPDTCSQDLNSRVKPGFPKTIKTNDPGVLQAARYSVEKFNNCTNDMFLFKESRITRALVQIVKGLKYMLEVEIGRTTCKKNQHLRLDDCDFQTNHTLKQTLSCYSEVWVVPWLQHFEVPVLRCH”, the “percentage of EdU-negative” value (MCF7; [5]) is reported as 27.2 ± 0.74%, the “percentage of EdU-negative” value (MCF7; protein concentration 0.225 µM) is reported as 27.2 ± 1.1% and the “percentage of EdU-negative” value (hTERT-HMEC; [5]) is reported as 4.61 ± 0.72%. The “percentage of EdU-negative” value (hTERT-HMEC; protein concentration 0.225 µM) was 4.863 ± 0.024%.
“MRAAPLLLARAASLSLGFLFLLFFWLDRSVLAKELKFVTLVFRHGDRSPIDTFPTDPIKESSWPQGFGQLTQLGMEQHYELGEYIRKRYRKFLNESYKHEQVYIRSTDVDRTLMSAMTNLAALFPPEGVSIWNPILLWQPIPVHTVPLSEDQLLYLPFRNCPRFQELESETLKSEEFQKRLHPYKDFIATLGKLSGLHGQDLFGIWSKVYDPLYCESVHNFTLPSWATEDTMTKLRELSELSLLSLYGIHKQKEKSRLQGGVLVNEILNHMKRATQIPSYKKLIMYSAHDTTVSGLQMALDVYNGLLPPYASCHLTELYFEKGEYFVEMYYRNETQHEPYPLMLPGCSPSCPLERFAELVGPVIPQDWSTECMTTNSHQGTEDSTD” was tested, and the “percentage of EdU-negative” value (MCF7; [7]) was 26.5 ± 0.46%, the “percentage of EdU-negative” value (MCF7; [8]) was 27.8 ± 1.6% and the “percentage of EdU-negative” value (hTERT-HMEC; [7]) was 5.15 ± 0.62%. The “percentage of EdU-negative” value (hTERT-HMEC; [8]) was 5.55 ± 0.26%.
